Measured values reported in the RNAGym collection of RNA variant scans (doi:10.7554/elife.80360).

B1: Hairpin Ribozyme (parent)
chain: GUCCUCUUUCACGUGCGCGUGAAAGAGAGAAGUGAACCAGAGAAACACACGUUGUGGUAUAUUACCUGGUA

Variants of: B1
Assay: self-cleavage, relative activity (ratio to wild type); higher = more cleavage; co-transcriptional

Row | Variant | self-cleavage
1 | G32C U55G | 0.0931
2 | G32C U58A | 0.116
3 | G32C U60C | 0.0463
4 | G32C U62A | 0.234
5 | G32C U62G | 0.0745
6 | G32C U63A | 0.208
7 | G32C U63C | 0.0888
8 | G32C U63G | 0.035
9 | G32C U70C | 0.234
10 | G32U A35G | 0.0968
11 | G32U A35U | 0.191
12 | G32U A39C | 0.116
13 | G32U A39G | 0.0986
14 | G32U A41G | 0.0256
15 | G32U A43U | 0.148
16 | G32U A44C | 0.112
17 | G32U A44U | 0.243
18 | G32U A45G | 0.0481
19 | G32U A45U | 0.3
20 | G32U A47G | 0.0761
21 | G32U A47U | 0.121

Row | Variant | self-cleavage
22 | G32U A49C | 0.0697
23 | G32U A49G | 0.128
24 | G32U A61U | 0.109
25 | G32U A71C | 0.206
26 | G32U A71G | 0.214
27 | G32U C38G | 0.125
28 | G32U C38U | 0.0994
29 | G32U C46A | 0.272
30 | G32U C46G | 0.14
31 | G32U C48G | 0.188
32 | G32U C66U | 0.194
33 | G32U G34C | 0.18
34 | G32U G40C | 0.0975
35 | G32U G40U | 0.152
36 | G32U G42A | 0.153
37 | G32U G51A | 0.179
38 | G32U G51U | 0.119
39 | G32U G56A | 0.117
40 | G32U G69U | 0.0924
41 | G32U U33A | 0.148
42 | G32U U33C | 0.222

Row | Variant | self-cleavage
43 | G32U U52C | 0.144
44 | G32U U53C | 0.253
45 | G32U U53G | 0.103
46 | G32U U55A | 0.0859
47 | G32U U58G | 0.137
48 | G32U U62G | 0.182
49 | G32U U63A | 0.172
50 | G32U U67A | 0.171
51 | G32U U67G | 0.121
52 | U33A A35G | 0.17
53 | U33A A35U | 0.131
54 | U33A A36G | 0.202
55 | U33A A39C | 0.105
56 | U33A A41C | 0.0532
57 | U33A A41G | 0.0913
58 | U33A A43C | 0.219
59 | U33A A43U | 0.115
60 | U33A A47G | 0.0897
61 | U33A A47U | 0.127
62 | U33A A49C | 0.163
63 | U33A A61C | 0.127

Row | Variant | self-cleavage
64 | U33A A64C | 0.143
65 | U33A A64U | 0.21
66 | U33A C37G | 0.182
67 | U33A C37U | 0.109
68 | U33A C38A | 0.13
69 | U33A C38G | 0.128
70 | U33A C50G | 0.211
71 | U33A C66G | 0.101
72 | U33A G34U | 0.134
73 | U33A G40A | 0.108
74 | U33A G40U | 0.126
75 | U33A G54C | 0.128
76 | U33A G57U | 0.13
77 | U33A U53A | 0.103
78 | U33A U53C | 0.264
79 | U33A U53G | 0.0866
80 | U33A U55G | 0.0798
81 | U33A U58C | 0.0877
82 | U33A U60A | 0.0246
83 | U33A U62A | 0.148
